The source of these data is patent US20180243434A1 (INSERM INSTITUT NATIONAL DE LA SANT ET DE LA RECHERCHE M …, published 2018).

Assay [1] addresses T1, N-terminal Flag-tagged nectin4 expressed in MDA-MB-231 cells (human, UniProt Q96NY8 32-510).
T1 sequence (looked up): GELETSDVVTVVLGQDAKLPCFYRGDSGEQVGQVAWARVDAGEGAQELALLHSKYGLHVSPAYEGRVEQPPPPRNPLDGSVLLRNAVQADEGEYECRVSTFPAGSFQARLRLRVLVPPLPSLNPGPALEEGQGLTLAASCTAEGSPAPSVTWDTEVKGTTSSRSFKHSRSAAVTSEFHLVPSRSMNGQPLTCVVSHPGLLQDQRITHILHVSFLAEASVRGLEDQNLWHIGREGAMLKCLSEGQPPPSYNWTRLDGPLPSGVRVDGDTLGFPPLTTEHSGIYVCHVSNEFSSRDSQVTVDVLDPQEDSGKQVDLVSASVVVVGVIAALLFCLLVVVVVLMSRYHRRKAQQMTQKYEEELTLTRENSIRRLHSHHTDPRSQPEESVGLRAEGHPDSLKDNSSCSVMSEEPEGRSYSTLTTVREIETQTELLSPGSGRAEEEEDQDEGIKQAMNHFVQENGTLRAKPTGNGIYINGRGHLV
Briefly: cell-based or functional assay.

Assay [2] addresses T2, endogenous nectin-4 on SUM190 cells (human, UniProt Q96NY8 32-510).
T2 sequence (looked up): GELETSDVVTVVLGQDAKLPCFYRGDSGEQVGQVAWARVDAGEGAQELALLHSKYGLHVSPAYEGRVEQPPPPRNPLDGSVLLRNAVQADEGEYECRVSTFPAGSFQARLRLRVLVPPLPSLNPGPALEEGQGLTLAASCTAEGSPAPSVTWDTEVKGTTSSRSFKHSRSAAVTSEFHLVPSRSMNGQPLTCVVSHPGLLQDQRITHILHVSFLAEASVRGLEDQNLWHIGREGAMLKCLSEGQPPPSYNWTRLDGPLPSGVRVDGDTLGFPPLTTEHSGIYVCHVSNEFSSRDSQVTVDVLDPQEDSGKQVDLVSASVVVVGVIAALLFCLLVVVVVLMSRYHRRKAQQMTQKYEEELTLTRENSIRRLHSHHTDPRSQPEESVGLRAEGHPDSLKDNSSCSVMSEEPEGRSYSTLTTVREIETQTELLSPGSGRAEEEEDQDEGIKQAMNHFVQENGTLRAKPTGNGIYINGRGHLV
Nature of the assay: cell-based or functional assay.

The target in assay [3] is T3, nectin1V-Fc (comprising only the IgV domain) (UniProt Q15223 31-143, limits assumed).
T3 construct: domain: IgV domain; not shown: Fc part
T3 sequence (looked up): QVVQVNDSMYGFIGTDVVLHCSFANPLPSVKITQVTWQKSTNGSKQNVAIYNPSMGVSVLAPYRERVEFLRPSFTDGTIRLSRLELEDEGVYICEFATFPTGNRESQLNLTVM
Nature of the assay: ELISA, plate coated with 5 ug/ml nectin1V-Fc. As to the method: A: Detection by ELISA. Ninety-six-well trays were coated with 5 ug/ml of nectin4V-Fc or nectin1V-Fc (comprising only the IgV domain) overnight at +4° C. as indicated. N41mab recognizes the nectin4V-Fc (bar 3) not the nectin1V-Fc (bar 1).
A sandwich enzyme-linked immunosorbent assay was used to control specificity of N41mab antibody and to perform competition assays between mabs. Ninety-six-well trays were coated with 5 μg/ml of nectin4V-Fc or nectin1V-Fc (comprising only the IgV domain) overnight at +4° C. After washes and saturation with PBS 1% BSA cells were incubated overnight with 0.625 μg/ml of N41mab. Peroxydase conjugated goat anti mouse antibody was incubated 2 h at 25° C. (Pierce). In the case of competition, binding of peroxidase conjugated N41mab was measured in the presence of vairable concentration of “cold” mab. One hundred ul of peroxidase substrate was added (One Step ABST, Pierce), and OD was read at 405 nm.
A sandwich enzyme-linked immunosorbent assay was used to control the specificity of the N41mab antibody. Ninety-six-well trays were coated with 5 μg/ml of nectin4V-Fc or nectin1V-Fc (comprising only the IgV domain) overnight at +4° C. After washes and saturation with PBS 1% BSA cells were incubated overnight with 0.625 μg/ml of mab1/N41mab. […] One hundred μ1 of peroxidase substrate was added (One Step ABST, Pierce), and OD was read at 405 nm.
In general terms: In an ELISA, binding on a coated surface is turned into a signal by an enzyme label.

B1: N41mab-vcMMAE (antibody, V domains shown)
VH: QVQLKQSGPGLVQPSQSLSITCTVSGFSLTNYGVHWVRQSPGKGLEWLGVIWSGGSTDYNAAFISRLSISKDTSKSQVFFKMNSLQADDTAIYYCARELIHAMDNWGQGTSVTVSS
VL: DIQMTQSPASLSVSVGETVTITCRASENIYSNLAWYQQKQGNSPQLLVFAATNLADGVPSRFSGSGSGTQYSLKINSLQSEDFGTYYCQHFWGTPTFGGGTKLEIK
modifications: monomethyl auristatin-E (MMAE) conjugated through the MC-Val-Cit-PAB linker; drug to antibody ratio 4.73; sites not stated
In the case of B1, the “IC50 (cell growth, alamarBlue)” value stood at 2 ng/mL in assay [1] and 4 ng/mL in assay [2].

B2: N41mab antibody (antibody, V domains shown)
VH: QVQLKQSGPGLVQPSQSLSITCTVSGFSLTNYGVHWVRQSPGKGLEWLGVIWSGGSTDYNAAFISRLSISKDTSKSQVFFKMNSLQADDTAIYYCARELIHAMDNWGQGTSVTVSS
VL: DIQMTQSPASLSVSVGETVTITCRASENIYSNLAWYQQKQGNSPQLLVFAATNLADGVPSRFSGSGSGTQYSLKINSLQSEDFGTYYCQHFWGTPTFGGGTKLEIK
notes: Mouse monoclonal antibody from a hybridoma (mice immunized with nectin4 V-Fc); also called mab1; Mab1
For B2, in assay [3], the binding result was “no binding (tested: 0.625 µg/ml)”.
